Data from patent US20210388110A1 (published 2021).

Target: T1, soluble human GPC3 (human, UniProt P51654 25-563, limits assumed)
T1 construct: soluble human GPC3 as analyte; also called glypican 3
Test: SPR (Biacore), soluble human GPC3

T1 sequence (P51654 other isoform, or with tags, fused parts or gaps limits assumed, form in doubt): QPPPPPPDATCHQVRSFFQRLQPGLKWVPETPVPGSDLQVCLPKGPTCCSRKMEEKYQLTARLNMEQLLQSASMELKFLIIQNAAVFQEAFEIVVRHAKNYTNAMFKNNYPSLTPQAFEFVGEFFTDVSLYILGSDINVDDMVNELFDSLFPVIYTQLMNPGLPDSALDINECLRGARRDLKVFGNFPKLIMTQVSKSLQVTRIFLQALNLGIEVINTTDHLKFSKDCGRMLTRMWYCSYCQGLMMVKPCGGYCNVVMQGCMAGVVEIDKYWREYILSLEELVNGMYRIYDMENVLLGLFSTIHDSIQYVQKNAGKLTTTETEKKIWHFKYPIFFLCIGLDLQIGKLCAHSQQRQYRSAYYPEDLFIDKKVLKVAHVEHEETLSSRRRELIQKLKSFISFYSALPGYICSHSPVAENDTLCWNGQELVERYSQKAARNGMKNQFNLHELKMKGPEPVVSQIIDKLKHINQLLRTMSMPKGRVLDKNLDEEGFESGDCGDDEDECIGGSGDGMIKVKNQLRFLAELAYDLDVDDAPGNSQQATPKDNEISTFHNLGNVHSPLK

| Binder | Kd [nM] |
| --- | --- |
| GCH098-G1dh/none-Hi-Kn010G3/L0011-k0 (antibody, human IgG1, kappa, single-arm (one Fab)) heavy: not shown EPKSSDKTHTCPPCPAPELLGGPSVFLFPPKPKDTLMISRTPEVTCVVVDVSHEDPEVKFNWYVDGVEVHNAKTKPREEQYNSTYRVVSVLTVLHQDWLNGKEYKCKVSNKALPAPIEKTISKAKGQPREPQVCTLPPSRDELTKNQVSLWCLVKGFYPSDIAVEWESNGQPENNYKTTPPVLDSDGSFFLYSKLTVDKSRWQQGNVFSCSVMHEALHNRYTQKSLSLSP light: DIVMTQSPLSLPVTPGEPASISCRSSQPLVHSNRNTYLHWYQQKPGQAPRLLIYKVSNRFSGVPDRFSGSGSGTDFTLKISRVEAEDVGVYYCGQGTQVPYTFGQGTKLEIKRTVAAPSVFIFPPSDEQLKSGTASVVCLLNNFYPREAKVQWKVDNALQSGNSQESVTEQDSKDSTYSLSSTLTLSKADYEKHKVYACEVTHQGLSSPVTKSFNRGEC | 0.802 |
| H0610-G1dh/none-Hi-Kn010G3/L0002-k0 (antibody, human IgG1, kappa, single-arm (one Fab)) heavy: not shown EPKSSDKTHTCPPCPAPELLGGPSVFLFPPKPKDTLMISRTPEVTCVVVDVSHEDPEVKFNWYVDGVEVHNAKTKPREEQYNSTYRVVSVLTVLHQDWLNGKEYKCKVSNKALPAPIEKTISKAKGQPREPQVCTLPPSRDELTKNQVSLWCLVKGFYPSDIAVEWESNGQPENNYKTTPPVLDSDGSFFLYSKLTVDKSRWQQGNVFSCSVMHEALHNRYTQKSLSLSP light: DIVMTQSPLSLPVTPGEPASISCRASQSLVHSNRNTYLHWYQQKPGQAPRLLIYKVSNRFSGVPDRFSGSGSGTDFTLKISRVEAEDVGVYYCGQGTQVPYTFGQGTKLEIKRTVAAPSVFIFPPSDEQLKSGTASVVCLLNNFYPREAKVQWKVDNALQSGNSQESVTEQDSKDSTYSLSSTLTLSKADYEKHKVYACEVTHQGLSSPVTKSFNRGEC | 4.43 |
| H0610-G1dh/none-Hi-Kn010G3/L0008-k0 (antibody, human IgG1, kappa, single-arm (one Fab)) heavy: not shown EPKSSDKTHTCPPCPAPELLGGPSVFLFPPKPKDTLMISRTPEVTCVVVDVSHEDPEVKFNWYVDGVEVHNAKTKPREEQYNSTYRVVSVLTVLHQDWLNGKEYKCKVSNKALPAPIEKTISKAKGQPREPQVCTLPPSRDELTKNQVSLWCLVKGFYPSDIAVEWESNGQPENNYKTTPPVLDSDGSFFLYSKLTVDKSRWQQGNVFSCSVMHEALHNRYTQKSLSLSP light: DIVMTQSPLSLPVTPGEPASISCRVSQSLVHSNRNTYLHWYQQKPGQAPRLLIYKVSNRFSGVPDRFSGSGSGTDFTLKISRVEAEDVGVYYCGQGTQVPYTFGQGTKLEIKRTVAAPSVFIFPPSDEQLKSGTASVVCLLNNFYPREAKVQWKVDNALQSGNSQESVTEQDSKDSTYSLSSTLTLSKADYEKHKVYACEVTHQGLSSPVTKSFNRGEC | 3.3 |
| H0610-G1dh/none-Hi-Kn010G3/L0006-k0 (antibody, human IgG1, kappa, single-arm (one Fab)) heavy: not shown EPKSSDKTHTCPPCPAPELLGGPSVFLFPPKPKDTLMISRTPEVTCVVVDVSHEDPEVKFNWYVDGVEVHNAKTKPREEQYNSTYRVVSVLTVLHQDWLNGKEYKCKVSNKALPAPIEKTISKAKGQPREPQVCTLPPSRDELTKNQVSLWCLVKGFYPSDIAVEWESNGQPENNYKTTPPVLDSDGSFFLYSKLTVDKSRWQQGNVFSCSVMHEALHNRYTQKSLSLSP light: DIVMTQSPLSLPVTPGEPASISCRPSQSLVHSNRNTYLHWYQQKPGQAPRLLIYKVSNRFSGVPDRFSGSGSGTDFTLKISRVEAEDVGVYYCGQGTQVPYTFGQGTKLEIKRTVAAPSVFIFPPSDEQLKSGTASVVCLLNNFYPREAKVQWKVDNALQSGNSQESVTEQDSKDSTYSLSSTLTLSKADYEKHKVYACEVTHQGLSSPVTKSFNRGEC | 3.04 |
| GCH100-G1dh/none-Hi-Kn010G3/L0011-k0 (antibody, human IgG1, kappa, single-arm (one Fab)) heavy: not shown EPKSSDKTHTCPPCPAPELLGGPSVFLFPPKPKDTLMISRTPEVTCVVVDVSHEDPEVKFNWYVDGVEVHNAKTKPREEQYNSTYRVVSVLTVLHQDWLNGKEYKCKVSNKALPAPIEKTISKAKGQPREPQVCTLPPSRDELTKNQVSLWCLVKGFYPSDIAVEWESNGQPENNYKTTPPVLDSDGSFFLYSKLTVDKSRWQQGNVFSCSVMHEALHNRYTQKSLSLSP light: DIVMTQSPLSLPVTPGEPASISCRSSQPLVHSNRNTYLHWYQQKPGQAPRLLIYKVSNRFSGVPDRFSGSGSGTDFTLKISRVEAEDVGVYYCGQGTQVPYTFGQGTKLEIKRTVAAPSVFIFPPSDEQLKSGTASVVCLLNNFYPREAKVQWKVDNALQSGNSQESVTEQDSKDSTYSLSSTLTLSKADYEKHKVYACEVTHQGLSSPVTKSFNRGEC | 3.81 |
| H0610-G1dh/none-Hi-Kn010G3/L0007-k0 (antibody, human IgG1, kappa, single-arm (one Fab)) heavy: not shown EPKSSDKTHTCPPCPAPELLGGPSVFLFPPKPKDTLMISRTPEVTCVVVDVSHEDPEVKFNWYVDGVEVHNAKTKPREEQYNSTYRVVSVLTVLHQDWLNGKEYKCKVSNKALPAPIEKTISKAKGQPREPQVCTLPPSRDELTKNQVSLWCLVKGFYPSDIAVEWESNGQPENNYKTTPPVLDSDGSFFLYSKLTVDKSRWQQGNVFSCSVMHEALHNRYTQKSLSLSP light: DIVMTQSPLSLPVTPGEPASISCRTSQSLVHSNRNTYLHWYQQKPGQAPRLLIYKVSNRFSGVPDRFSGSGSGTDFTLKISRVEAEDVGVYYCGQGTQVPYTFGQGTKLEIKRTVAAPSVFIFPPSDEQLKSGTASVVCLLNNFYPREAKVQWKVDNALQSGNSQESVTEQDSKDSTYSLSSTLTLSKADYEKHKVYACEVTHQGLSSPVTKSFNRGEC | 4.39 |
| H0610-G1dh/none-Hi-Kn010G3/L0009-k0 (antibody, human IgG1, kappa, single-arm (one Fab)) heavy: not shown EPKSSDKTHTCPPCPAPELLGGPSVFLFPPKPKDTLMISRTPEVTCVVVDVSHEDPEVKFNWYVDGVEVHNAKTKPREEQYNSTYRVVSVLTVLHQDWLNGKEYKCKVSNKALPAPIEKTISKAKGQPREPQVCTLPPSRDELTKNQVSLWCLVKGFYPSDIAVEWESNGQPENNYKTTPPVLDSDGSFFLYSKLTVDKSRWQQGNVFSCSVMHEALHNRYTQKSLSLSP light: DIVMTQSPLSLPVTPGEPASISCRSPQSLVHSNRNTYLHWYQQKPGQAPRLLIYKVSNRFSGVPDRFSGSGSGTDFTLKISRVEAEDVGVYYCGQGTQVPYTFGQGTKLEIKRTVAAPSVFIFPPSDEQLKSGTASVVCLLNNFYPREAKVQWKVDNALQSGNSQESVTEQDSKDSTYSLSSTLTLSKADYEKHKVYACEVTHQGLSSPVTKSFNRGEC | 2.99 |

The remaining binders from weak to strong by Kd, led by results:

| Kd [nM] | Binder |
| --- | --- |
| 4.24 | GCH099-G1dh/none-Hi-Kn010G3/L0000-k0 (antibody, human IgG1, kappa, single-arm (one Fab); printed with a small k in Hi-kn010G3) heavy: not shown EPKSSDKTHTCPPCPAPELLGGPSVFLFPPKPKDTLMISRTPEVTCVVVDVSHEDPEVKFNWYVDGVEVHNAKTKPREEQYNSTYRVVSVLTVLHQDWLNGKEYKCKVSNKALPAPIEKTISKAKGQPREPQVCTLPPSRDELTKNQVSLWCLVKGFYPSDIAVEWESNGQPENNYKTTPPVLDSDGSFFLYSKLTVDKSRWQQGNVFSCSVMHEALHNRYTQKSLSLSP light: DIVMTQSPLSLPVTPGEPASISCRSSQSLVHSNRNTYLHWYQQKPGQAPRLLIYKVSNRFSGVPDRFSGSGSGTDFTLKISRVEAEDVGVYYCGQGTQVPYTFGQGTKLEIKRTVAAPSVFIFPPSDEQLKSGTASVVCLLNNFYPREAKVQWKVDNALQSGNSQESVTEQDSKDSTYSLSSTLTLSKADYEKHKVYACEVTHQGLSSPVTKSFNRGEC |
| 4.01 | H0610-G1dh/none-Hi-Kn010G3/L0003-k0 (antibody, human IgG1, kappa, single-arm (one Fab)) heavy: not shown EPKSSDKTHTCPPCPAPELLGGPSVFLFPPKPKDTLMISRTPEVTCVVVDVSHEDPEVKFNWYVDGVEVHNAKTKPREEQYNSTYRVVSVLTVLHQDWLNGKEYKCKVSNKALPAPIEKTISKAKGQPREPQVCTLPPSRDELTKNQVSLWCLVKGFYPSDIAVEWESNGQPENNYKTTPPVLDSDGSFFLYSKLTVDKSRWQQGNVFSCSVMHEALHNRYTQKSLSLSP light: DIVMTQSPLSLPVTPGEPASISCRISQSLVHSNRNTYLHWYQQKPGQAPRLLIYKVSNRFSGVPDRFSGSGSGTDFTLKISRVEAEDVGVYYCGQGTQVPYTFGQGTKLEIKRTVAAPSVFIFPPSDEQLKSGTASVVCLLNNFYPREAKVQWKVDNALQSGNSQESVTEQDSKDSTYSLSSTLTLSKADYEKHKVYACEVTHQGLSSPVTKSFNRGEC |
| 2.78 | GCH099-G1dh/none-Hi-Kn010G3/L0011-k0 (antibody, human IgG1, kappa, single-arm (one Fab)) heavy: not shown EPKSSDKTHTCPPCPAPELLGGPSVFLFPPKPKDTLMISRTPEVTCVVVDVSHEDPEVKFNWYVDGVEVHNAKTKPREEQYNSTYRVVSVLTVLHQDWLNGKEYKCKVSNKALPAPIEKTISKAKGQPREPQVCTLPPSRDELTKNQVSLWCLVKGFYPSDIAVEWESNGQPENNYKTTPPVLDSDGSFFLYSKLTVDKSRWQQGNVFSCSVMHEALHNRYTQKSLSLSP light: DIVMTQSPLSLPVTPGEPASISCRSSQPLVHSNRNTYLHWYQQKPGQAPRLLIYKVSNRFSGVPDRFSGSGSGTDFTLKISRVEAEDVGVYYCGQGTQVPYTFGQGTKLEIKRTVAAPSVFIFPPSDEQLKSGTASVVCLLNNFYPREAKVQWKVDNALQSGNSQESVTEQDSKDSTYSLSSTLTLSKADYEKHKVYACEVTHQGLSSPVTKSFNRGEC |
| 1.37 | GCH100-G1dh/none-Hi-Kn010G3/L0201-k0 (antibody, human IgG1, kappa, single-arm (one Fab)) heavy: not shown EPKSSDKTHTCPPCPAPELLGGPSVFLFPPKPKDTLMISRTPEVTCVVVDVSHEDPEVKFNWYVDGVEVHNAKTKPREEQYNSTYRVVSVLTVLHQDWLNGKEYKCKVSNKALPAPIEKTISKAKGQPREPQVCTLPPSRDELTKNQVSLWCLVKGFYPSDIAVEWESNGQPENNYKTTPPVLDSDGSFFLYSKLTVDKSRWQQGNVFSCSVMHEALHNRYTQKSLSLSP light: DIVMTQSPLSLPVTPGEPASISCRSSQPPVHSNRNTYLHWYQQKPGQAPRLLIYKVSNRFSGVPDRFSGSGSGTDFTLKISRVEAEDVGVYYCGQGTQVPYTFGQGTKLEIKRTVAAPSVFIFPPSDEQLKSGTASVVCLLNNFYPREAKVQWKVDNALQSGNSQESVTEQDSKDSTYSLSSTLTLSKADYEKHKVYACEVTHQGLSSPVTKSFNRGEC |
| 1.29 | GCH099-G1dh/none-Hi-Kn010G3/L0201-k0 (antibody, human IgG1, kappa, single-arm (one Fab)) heavy: not shown EPKSSDKTHTCPPCPAPELLGGPSVFLFPPKPKDTLMISRTPEVTCVVVDVSHEDPEVKFNWYVDGVEVHNAKTKPREEQYNSTYRVVSVLTVLHQDWLNGKEYKCKVSNKALPAPIEKTISKAKGQPREPQVCTLPPSRDELTKNQVSLWCLVKGFYPSDIAVEWESNGQPENNYKTTPPVLDSDGSFFLYSKLTVDKSRWQQGNVFSCSVMHEALHNRYTQKSLSLSP light: DIVMTQSPLSLPVTPGEPASISCRSSQPPVHSNRNTYLHWYQQKPGQAPRLLIYKVSNRFSGVPDRFSGSGSGTDFTLKISRVEAEDVGVYYCGQGTQVPYTFGQGTKLEIKRTVAAPSVFIFPPSDEQLKSGTASVVCLLNNFYPREAKVQWKVDNALQSGNSQESVTEQDSKDSTYSLSSTLTLSKADYEKHKVYACEVTHQGLSSPVTKSFNRGEC |
| 0.111 | GCH098-G1dh/none-Hi-Kn010G3/L0201-k0 (antibody, human IgG1, kappa, single-arm (one Fab)) heavy: not shown EPKSSDKTHTCPPCPAPELLGGPSVFLFPPKPKDTLMISRTPEVTCVVVDVSHEDPEVKFNWYVDGVEVHNAKTKPREEQYNSTYRVVSVLTVLHQDWLNGKEYKCKVSNKALPAPIEKTISKAKGQPREPQVCTLPPSRDELTKNQVSLWCLVKGFYPSDIAVEWESNGQPENNYKTTPPVLDSDGSFFLYSKLTVDKSRWQQGNVFSCSVMHEALHNRYTQKSLSLSP light: DIVMTQSPLSLPVTPGEPASISCRSSQPPVHSNRNTYLHWYQQKPGQAPRLLIYKVSNRFSGVPDRFSGSGSGTDFTLKISRVEAEDVGVYYCGQGTQVPYTFGQGTKLEIKRTVAAPSVFIFPPSDEQLKSGTASVVCLLNNFYPREAKVQWKVDNALQSGNSQESVTEQDSKDSTYSLSSTLTLSKADYEKHKVYACEVTHQGLSSPVTKSFNRGEC |
